# From patent US20240254238A1 (OXFORD BIOTHERAPEUTICS, published 2024)
# B1: DM4-conjugated anti-LY75 monoclonal antibody 8A3 (antibody, V domains shown)
# VH: EVQLVESGGGLIQPGGSLRLSCAASGFTVSSNYMSWVRQAPGKGLEWVSVIYSGGSTYYTDSVKGRFTISRDNSKNTLYLQMNSLRAEDTAVYYCARDKSGWNGFDYWGQGTLVTVSS
# VL: DVQMTQSPSSLSASVGDRVTITCRASQSVSTYLHWYQQKPGKAPKLLIYAASSLQGGLPSRFSGSGSGTDFTLTISSLQPEDFATYYCQQSSSTPLTFGGGTKVEITR
# modifications: antibody conjugated to the maytansinoid DM4; attachment residues not stated
# B2: DM4-conjugated anti-LY75 monoclonal antibody 16A5 (CD205_A1) (antibody, V domains shown)
# VH: EVQLVESGGGLVKPGGSLRLSCAASGFTYSNAWMSWVRQAPGKGLEWVGRIKSKTDGGTTDYAAPVQGRFTISRDDSKNTLYLQMNSLKTEDTAVYYCTIFGVVSFDYWGQGTLVTVSS
# VL: DVQMTQSPSSLSASVGDRVTITCRASQSISDYLSWYQQRPGKAPNLLIYAASNLKTGVPSRFSGSGSGTDFTLTISTLQPEDFATYYCQQSYRSPWTFGQGTKVEIKR
# modifications: antibody conjugated to the maytansinoid DM4; attachment residues not stated
# Target: human CD205 (human, UniProt O60449 28-1722)
# Assay: cell-based or functional assay
# Sequence of human CD205 (O60449 28-1722 limits assumed): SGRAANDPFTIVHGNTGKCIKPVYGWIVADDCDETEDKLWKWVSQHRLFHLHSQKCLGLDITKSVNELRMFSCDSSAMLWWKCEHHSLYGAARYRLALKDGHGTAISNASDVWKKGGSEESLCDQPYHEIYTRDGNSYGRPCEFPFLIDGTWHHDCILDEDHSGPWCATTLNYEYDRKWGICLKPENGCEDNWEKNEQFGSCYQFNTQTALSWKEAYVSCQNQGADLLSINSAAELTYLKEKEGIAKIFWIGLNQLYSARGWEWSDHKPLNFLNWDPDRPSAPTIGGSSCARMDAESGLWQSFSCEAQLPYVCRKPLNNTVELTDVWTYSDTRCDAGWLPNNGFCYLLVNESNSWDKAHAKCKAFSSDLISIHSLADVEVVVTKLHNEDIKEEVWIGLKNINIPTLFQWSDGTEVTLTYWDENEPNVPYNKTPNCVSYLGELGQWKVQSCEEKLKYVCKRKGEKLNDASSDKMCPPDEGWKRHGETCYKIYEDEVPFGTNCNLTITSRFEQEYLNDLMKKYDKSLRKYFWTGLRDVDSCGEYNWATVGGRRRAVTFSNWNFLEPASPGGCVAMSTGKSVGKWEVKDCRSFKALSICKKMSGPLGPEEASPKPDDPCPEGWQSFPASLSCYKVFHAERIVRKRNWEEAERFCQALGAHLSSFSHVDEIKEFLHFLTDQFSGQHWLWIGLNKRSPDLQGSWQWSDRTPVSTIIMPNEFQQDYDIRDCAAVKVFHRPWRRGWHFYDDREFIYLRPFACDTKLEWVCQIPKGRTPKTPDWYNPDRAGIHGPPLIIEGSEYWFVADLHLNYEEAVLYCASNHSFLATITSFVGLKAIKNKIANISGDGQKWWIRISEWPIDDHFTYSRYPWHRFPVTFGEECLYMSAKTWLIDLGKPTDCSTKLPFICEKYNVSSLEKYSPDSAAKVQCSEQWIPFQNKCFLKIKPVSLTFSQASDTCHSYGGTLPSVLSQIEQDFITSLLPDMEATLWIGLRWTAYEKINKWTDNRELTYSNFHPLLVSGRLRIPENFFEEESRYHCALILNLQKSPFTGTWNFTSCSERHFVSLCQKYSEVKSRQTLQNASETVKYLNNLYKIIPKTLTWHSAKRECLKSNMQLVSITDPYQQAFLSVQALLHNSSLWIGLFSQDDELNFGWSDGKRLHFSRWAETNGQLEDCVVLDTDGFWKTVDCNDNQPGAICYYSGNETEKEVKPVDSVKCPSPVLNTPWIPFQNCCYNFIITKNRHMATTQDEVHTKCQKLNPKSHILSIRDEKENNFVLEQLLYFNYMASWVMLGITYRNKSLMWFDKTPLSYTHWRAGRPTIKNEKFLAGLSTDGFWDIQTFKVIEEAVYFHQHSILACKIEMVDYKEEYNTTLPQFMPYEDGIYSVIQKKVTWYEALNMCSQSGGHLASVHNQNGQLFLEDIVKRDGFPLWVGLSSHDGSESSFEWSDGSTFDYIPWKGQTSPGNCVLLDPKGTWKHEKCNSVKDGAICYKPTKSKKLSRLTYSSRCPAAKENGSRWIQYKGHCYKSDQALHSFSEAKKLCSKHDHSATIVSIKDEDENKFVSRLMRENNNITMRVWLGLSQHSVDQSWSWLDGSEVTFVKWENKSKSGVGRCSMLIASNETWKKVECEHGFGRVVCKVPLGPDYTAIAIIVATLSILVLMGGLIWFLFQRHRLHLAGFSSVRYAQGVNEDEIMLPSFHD
Binder,"EC50 (pM) of % Specific Death, Cell-Titer Glo, Raji cells, 96 hours [pM]","EC50 (pM) of % Specific Death, Cell-Titer Glo, THP1 cells, 96 hours [pM]"
B1,1010,98.8
B2,728,37.5
